We go through seven substances from the supplement of paper PMC5998384.

Data set [1] has as its system HeLa Kyoto. As to the kind of experiment: solubility in G1/S (NP-40 vs SDS abundance) (log2 ratio); higher = more soluble. As to conditions: cell cycle stage: G1/S.
Data set [2] relates to HeLa Kyoto. The data set is described as follows: melting temperature (median over replicates), in situ; higher = more thermally stable.
The subject of data set [3] is HeLa Kyoto. The data set is described as follows: solubility change mitosis vs G1/S (difference of NP-40 vs SDS log2 ratios) (log2 ratio difference); higher = more soluble in mitosis.
Data set [4] relates to HeLa Kyoto. As to the kind of experiment: thermal stability score vs G1/S (z-score of summed log2 fold changes over temperatures); higher = more thermally stable than in G1/S.
The mark [5] stands for this setting: cell cycle stage: early G1 (4.5 h after nocodazole release).
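For melting temperature (median over replicates), in situ in this document: HeLa Kyoto cells synchronized by double thymidine or nocodazole block, proteins quantified by TMT10plex mass spectrometry, three independent biological replicates.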
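For solubility change mitosis vs G1/S (difference of NP-40 vs SDS log2 ratios) in this document: synchronized HeLa Kyoto cells (double thymidine block for G1/S, nocodazole release for mitosis), protein amounts in NP-40 versus SDS lysates quantified by mass spectrometry, three biological replicates.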
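For solubility in G1/S (NP-40 vs SDS abundance) in this document: HeLa Kyoto cells arrested at G1/S by double thymidine block, proteins quantified by TMT10plex mass spectrometry in mild NP-40 versus SDS extracts, three biological replicates.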
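For thermal stability score vs G1/S (z-score of summed log2 fold changes over temperatures) in this document: synchronized HeLa Kyoto cells, proteins quantified by TMT10plex mass spectrometry, three biological replicates, mitosis taken 0.5 h after nocodazole release, G1/S directly after double thymidine block.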

“MLPNTGRLAGCTVFITGASRGIGKAIALKAAKDGANIVIAAKTAQPHPKLLGTIYTAAEEIEAVGGKALPCIVDVRDEQQISAAVEKAIKKFGGIDILVNNASAISLTNTLDTPTKRLDLMMNVNTRGTYLASKACIPYLKKSKVAHILNISPPLNLNPVWFKQHCAYTIAKYGMSMYVLGMAEEFKGEIAVNALWPKTAIHTAAMDMLGGPGIESQCRKVDIIADAAYSIFQKPKSFTGNFVIDENILKEEGIENFDVYAIKPGHPLQPDFFLDEYPEAVSKKVESTGAVPEFKEEKLQLQPKPRSGAVEETFRIVKDSLSDDVVKATQAIYLFELSGEDGGTWFLDLKSKGGNVGYGEPSDQADVVMSMTTDDFVKMFSGKLKPTMAFMSGKLKIKGNMALAIKLEKLMNQMNARL [HSDL2]”: in the data set on HeLa Kyoto [1], the “solubility in G1/S (log2)” value was 0.296. Further, the melting temperature in the data set with HeLa Kyoto [2] (cell cycle stage: G1/S) was 51.5 °C; with HeLa Kyoto [2] (cell cycle stage: mitosis) it was 52.5 °C. In the data set on HeLa Kyoto [3], the “solubility change mitosis (log2)” value was -0.109. In addition, the thermal stability score in the data set on HeLa Kyoto [4] (setting [5]) was -0.828; in the data set on HeLa Kyoto [4] (cell cycle stage: mitosis), 0.589.

For the substance “MQAGKPILYSYFRSSCSWRVRIALALKGIDYKTVPINLIKDRGQQFSKDFQALNPMKQVPTLKIDGITIHQSLAIIEYLEEMRPTPRLLPQDPKKRASVRMISDLIAGGIQPLQNLSVLKQVGEEMQLTWAQNAITCGFNALEQILQSTAGIYCVGDEVTMADLCLVPQVANAERFKVDLTPYPTISSINKRLLVLEAFQVSHPCRQPDTPTELRA [GSTZ1]”, the “solubility in G1/S (log2)” value in the data set on HeLa Kyoto [1] was 0.447. Besides, the melting temperature in the data set with HeLa Kyoto [2] (cell cycle stage: G1/S) came to 53.5 °C; in the data set with HeLa Kyoto [2] (cell cycle stage: mitosis), 52.9 °C. The “solubility change mitosis (log2)” value with HeLa Kyoto [3] stood at 0.0886. Besides, the results for the thermal stability score with HeLa Kyoto [4] (setting [5]) and in the data set on HeLa Kyoto [4] (cell cycle stage: mitosis) were -2.37 and -2.09, respectively.

Regarding “MASGVQVADEVCRIFYDMKVRKCSTPEEIKKRKKAVIFCLSADKKCIIVEEGKEILVGDVGVTITDPFKHFVGMLPEKDCRYALYDASFETKESRKEELMFFLWAPELAPLKSKMIYASSKDAIKKKFQGIKHECQANGPEDLNRACIAEKLGGSLIVAFEGCPV [DSTN]”, the “solubility in G1/S (log2)” value in the data set on HeLa Kyoto [1] amounted to 0.0748. In addition, the melting temperature came to 54.1 °C with HeLa Kyoto [2] (cell cycle stage: G1/S) and 53.3 °C in the data set on HeLa Kyoto [2] (cell cycle stage: mitosis). The “solubility change mitosis (log2)” value in the data set on HeLa Kyoto [3] was -0.06. Also, the thermal stability score in the data set with HeLa Kyoto [4] (setting [5]) is -0.977; in the data set on HeLa Kyoto [4] (cell cycle stage: mitosis), -2.53.

As to “MAREMTILGSAVLTLLLAGYLAQQYLPLPTPKVIGIDLGTTYCSVGVFFPGTGKVKVIPDENGHISIPSMVSFTDNDVYVGYESVELADSNPQNTIYDAKRFIGKIFTAEELEAEIGRYPFKVLNKNGMVEFSVTSNETITVSPEYVGSRLLLKLKEMAEAYLGMPVANAVISVPAEFDLKQRNSTIEAANLAGLKILRVINEPTAAAMAYGLHKADVFHVLVIDLGGGTLDVSLLNKQGGMFLTRAMSGNNKLGGQDFNQRLLQYLYKQIYQTYGFVPSRKEEIHRLRQAVEMVKLNLTLHQSAQLSVLLTVEEQDRKEPHSSDTELPKDKLSSADDHRVNSGFGRGLSDKKSGESQVLFETEISRKLFDTLNEDLFQKILVPIQQVLKEGHLEKTEIDEVVLVGGSTRIPRIRQVIQEFFGKDPNTSVDPDLAVVTGVAIQAGIDGGSWPLQVSALEIPNKHLQKTNFN [HSPA13]”, in the data set on HeLa Kyoto [1], the “solubility in G1/S (log2)” value was found to be 0.088. Moreover, the melting temperature in the data set on HeLa Kyoto [2] (cell cycle stage: G1/S) was determined as 54.6 °C; in the data set with HeLa Kyoto [2] (cell cycle stage: mitosis) it was 53.3 °C. In addition, the “solubility change mitosis (log2)” value in the data set with HeLa Kyoto [3] was 0.00641. For the same substance, the figures for the thermal stability score in the data set on HeLa Kyoto [4] (setting [5]) and with HeLa Kyoto [4] (cell cycle stage: mitosis) were 4.12 and 4.92, respectively.

In the case of PKM, the “solubility in G1/S (log2)” value with HeLa Kyoto [1] stood at 0.116. The melting temperature in the data set with HeLa Kyoto [2] (cell cycle stage: G1/S) is 57.8 °C; in the data set with HeLa Kyoto [2] (cell cycle stage: mitosis) it was 57.4 °C. In addition, in the data set on HeLa Kyoto [3], the “solubility change mitosis (log2)” value is -0.106. The thermal stability score was -2.6 in the data set on HeLa Kyoto [4] (setting [5]) and -2.54 in the data set on HeLa Kyoto [4] (cell cycle stage: mitosis).

For “MSASAPAAEGEGTPTQPASEKEPEMPGPREESEEEEDEDDEEEEEEEKEKSLIVEGKREKKKVERLTMQVSSLQREPFTIAQGKGQKLCEIERIHFFLSKKKTDELRNLHKLLYNRPGTVSSLKKNVGQFSGFPFEKGSVQYKKKEEMLKKFRNAMLKSICEVLDLERSGVNSELVKRILNFLMHPKPSGKPLPKSKKTCSKGSKKERNSSGMARKAKRTKCPEILSDESSSDEDEKKNKEESSDDEDKESEEEPPKKTAKREKPKQKATSKSKKSVKSANVKKADSSTTKKNQNSSKKESESEDSSDDEPLIKKLKKPPTDEELKETIKKLLASANLEEVTMKQICKKVYENYPTYDLTERKDFIKTTVKELIS”, in the data set on HeLa Kyoto [1], the “solubility in G1/S (log2)” value is -0.0398. Besides, the melting temperature came out at 48.8 °C with HeLa Kyoto [2] (cell cycle stage: G1/S) and 50.7 °C in the data set with HeLa Kyoto [2] (cell cycle stage: mitosis). In addition, the “solubility change mitosis (log2)” value in the data set with HeLa Kyoto [3] amounted to 0.338. The thermal stability score in the data set on HeLa Kyoto [4] (setting [5]) was determined as 7.97; in the data set with HeLa Kyoto [4] (cell cycle stage: mitosis), 13.2.

“MEVKRLKVTELRSELQRRGLDSRGLKVDLAQRLQEALDAEMLEDEAGGGGAGPGGACKAEPRPVAASGGGPGGDEEEDEEEEEEDEEALLEDEDEEPPPAQALGQAAQPPPEPPEAAAMEAAAEPDASEKPAEATAGSGGVNGGEEQGLGKREEDEPEERSGDETPGSEVPGDKAAEEQGDDQDSEKSKPAGSDGERRGVKRQRDEKDEHGRAYYEFREEAYHSRSKSPLPPEEEAKDEEEDQTLVNLDTYTSDLHFQVSKDRYGGQPLFSEKFPTLWSGARSTYGVTKGKVCFEAKVTQNLPMKEGCTEVSLLRVGWSVDFSRPQLGEDEFSYGFDGRGLKAENGQFEEFGQTFGENDVIGCFANFETEEVELSFSKNGEDLGVAFWISKDSLADRALLPHVLCKNCVVELNFGQKEEPFFPPPEEFVFIHAVPVEERVRTAVPPKTIEECEVILMVGLPGSGKTQWALKYAKENPEKRYNVLGAETVLNQMRMKGLEEPEMDPKSRDLLVQQASQCLSKLVQIASRTKRNFILDQCNVYNSGQRRKLLLFKTFSRKVVVVVPNEEDWKKRLELRKEVEGDDVPESIMLEMKANFSLPEKCDYMDEVTYGELEKEEAQPIVTKYKEEARKLLPPSEKRTNRRNNRNKRNRQNRSRGQGYVGGQRRGYDNRAYGQQYWGQPGNRGGYRNFYDRYRGDYDRFYGRDYEYNRYRDYYRQYNRDWQSYYYHHPQDRDRYYRNYYGYQGYR [HNRNPUL2]”: the “solubility in G1/S (log2)” value in the data set on HeLa Kyoto [1] is -0.462. Besides, the results for the melting temperature in the data set with HeLa Kyoto [2] (cell cycle stage: G1/S) and with HeLa Kyoto [2] (cell cycle stage: mitosis) were 49.2 °C and 50.1 °C, respectively. The “solubility change mitosis (log2)” value in the data set on HeLa Kyoto [3] came out at 0.258. In addition, the values for the thermal stability score in the data set with HeLa Kyoto [4] (setting [5]) and with HeLa Kyoto [4] (cell cycle stage: mitosis) were 0.965 and 3.42, respectively.
